The source of these data is patent publication US20180134765A1 (AVIDBIOTICS, published 2018).

In assay [1] the target is T1, human NKG2D-Fc (human, UniProt P26718 78-216, limits assumed).
T1 construct: also called natural NKG2D-Fc; not shown: Fc part
T1 sequence (looked up): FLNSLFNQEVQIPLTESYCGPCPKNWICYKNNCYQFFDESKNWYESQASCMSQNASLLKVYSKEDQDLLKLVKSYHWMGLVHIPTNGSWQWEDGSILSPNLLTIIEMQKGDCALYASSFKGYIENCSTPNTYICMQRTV
Briefly: ELISA: protein captured on FGFR3 detected with NKG2D-Fc. In general terms: ELISA stands for enzyme-linked immunosorbent assay.

The target of assay [2] is T2, NKG2D on NKL cells (human, UniProt P26718 1-216).
T2 sequence (looked up): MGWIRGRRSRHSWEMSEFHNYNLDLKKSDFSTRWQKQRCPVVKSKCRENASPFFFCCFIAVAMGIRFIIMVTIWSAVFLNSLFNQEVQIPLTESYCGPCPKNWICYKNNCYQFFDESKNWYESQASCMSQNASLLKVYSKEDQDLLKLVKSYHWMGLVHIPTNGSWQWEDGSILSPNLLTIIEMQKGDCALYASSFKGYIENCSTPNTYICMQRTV
Briefly: cell-based or functional assay.

Assay [3] addresses T3, His-avitag-natural NKG2D (human, biotin on the avitag sequence (BirA)).
T3 construct: also called natural NKG2D ectodomain; wild type NKG2D
T3 chain: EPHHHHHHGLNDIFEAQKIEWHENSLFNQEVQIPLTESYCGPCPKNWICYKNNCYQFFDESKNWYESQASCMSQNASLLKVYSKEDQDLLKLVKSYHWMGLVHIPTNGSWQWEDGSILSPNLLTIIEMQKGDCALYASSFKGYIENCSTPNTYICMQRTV
The assay can be described thus: biolayer interferometry (Octet), biotinylated natural NKG2D ectodomain on the surface, 100 nM fusion protein. Background: BLI is a label-free optical method that tracks binding on a fibre tip over time.

Assay [4] has as its target T4, murine NKG2D-Fc (mouse, UniProt O54709 94-232, limits assumed).
T4 construct: also called mouse NKG2D-Fc; not shown: Fc part; not described
T4 sequence (looked up): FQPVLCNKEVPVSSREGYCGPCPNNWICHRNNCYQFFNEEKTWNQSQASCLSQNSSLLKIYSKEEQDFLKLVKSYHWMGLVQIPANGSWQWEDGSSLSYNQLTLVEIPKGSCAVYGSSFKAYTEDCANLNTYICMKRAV
The assay can be described thus: competition ELISA: variant titrated against mouse NKG2D-Fc binding to plate-coated MICA (competitor), detected with anti-Fc-HRP.

In assay [5] the target is T3, His-avitag-natural NKG2D. Briefly: biolayer interferometry (Octet), biotinylated natural NKG2D ectodomain on the surface, 100 nM fusion protein; run B.

B1: ULBP4-α3-iFv.2 (designed binder)
chain: EPHSLCFNFTIKSLSRPGQPWCEAQVFLNKNLFLQYNSDNNMVKPLGLLGKKVYATSTWGELTQTLGEVGRDLRMLLCDIKPQIKTSDPSTLQVEMFCQREAERCTGASWQFATNGEKSLLFDAMNMTWTVINHEASKIKETWKKDRGLEKYFRKLSKGDCDHWLREFLGHWEAMPEPTVSPPMVQVTRSEASGGSGDRVTITCRASQDVSTAVAWYQQKPGKAPKLLIYSASFLYSGVPSRFSGSGSGTDFTLTISSLQPEDFATYYCQQSYTTPPTFGQGTKVEIKGGSSRSSSSGGGGSGGGGEVQLVESGGGLVQPGGSLRLSCAASGFTFTSTGISWVRQAPGKGLEWVGRIYPTNGSTNYADSVKGRFTISADTSKNTAYLQMNSLRAEDTAVYYCARTYGIYDLYVDYTEYVMDYWGQGTLVTVSSGGSSRSSSSGGGGSGGGGDIQMTQSPSSLSASGGSGQITVTCRASGFYPWNITLSWRQDGVSLSHDTQQWGDVLPDGQGTYQTWVATRISQGEEQRFTCYMEHSGQHSTHPVPSGKGSHHHHHH
notes: His-tagged, monomeric, insect cells; also called NKG2DL-α3-iFv.2 (ULBP4)
Turning to B1, the binding result in assay [1] is reported as “binds”.

B2: α1-α2 variant 16 (ligand)
chain: EPHSLRYNLTVLSWDGSVQSGFLTEVHLDGQPFLRCDRQKCRAKPQGQWAEDVLGNKTWDRETRDLTGWGKDLRMTLAHIKDQKEGLHSLQEIRVCEIHEDNSTRSSQHFYYDGELFLSQNLETLEWTMPQSSRAQTLAMNVRNFLKEDAMETDTHYHAMRADCLQELRRYLKSGVVLRRTVPPMVQVTRSEASGGSGDRVTITCRASQDVSTAVAWYQQKPGKAPKLLIYSASFLYSGVPSRFSGSGSGTDFTLTISSLQPEDFATYYCQQSYTTPPTFGQGTKVEIKGGSSRSSSSGGGGSGGGGEVQLVESGGGLVQPGGSLRLSCAASGFTFTSTGISWVRQAPGKGLEWVGRIYPTNGSTNYADSVKGRFTISADTSKNTAYLQMNSLRAEDTAVYYCARTYGIYDLYVDYTEYVMDYWGQGTLVTVSSGGSSRSSSSGGGGSGGGGDIQMTQSPSSLSASGGSGQITVTCRASGFYPWNITLSWRQDGVSLSHDTQQWGDVLPDGQGTYQTWVATRISQGEEQRFTCYMEHSGQHSTHPVPSGKGSHHHHHH
For the molecule B2, the “NK cell-mediated lysis of FGFR3-expressing P815 target cells (calcein release, NKL cells)” value in assay [2] was ~15 fold more killing than WT at 0.78 nM.

B3: MICv49-Fv (designed binder)
chain: EPHSLRYNLTVLSWDGSVQTGFLTEVHLDGQPFLRCDRQKCRAKPQGQWAEDVLGNKTWDRETRDLTQWGKDLRMTLAHIKDQKEGLHSLQEIRVCEIHEDNSTRSSQHFYYDGELFLSQNLETKEWTMPQSSRAQTLAMNVRNFLKEDAMFTDTHYRAMTADCLTELRRYLKSGVVLRRTVPPMVQVTRSEASGGSGDRVTITCRASQDVSTAVAWYQQKPGKAPKLLIYSASFLYSGVPSRFSGSGSGTDFTLTISSLQPEDFATYYCQQSYTTPPTFGQGTKVEIKGGSSRSSSSGGGGSGGGGEVQLVESGGGLVQPGGSLRLSCAASGFTFTSTGISWVRQAPGKGLEWVGRIYPTNGSTNYADSVKGRFTISADTSKNTAYLQMNSLRAEDTAVYYCARTYGIYDLYVDYTEYVMDYWGQGTLVTVSSGGSSRSSSSGGGGSGGGGDIQMTQSPSSLSASGGSGQITVTCRASGFYPWNITLSWRQDGVSLSHDTQQWGDVLPDGQGTYQTWVATRISQGEEQRFTCYMEHSGQHSTHPVPSGKGSHHHHHH
notes: His-tagged α1-α2-α3-Fv fusion; also called DSM49 α1-α2-α3-Fv fusion
By Kd is commonly meant the equilibrium constant for the complex coming apart. High values mean lower affinity, low ones higher affinity. What is called koff is the rate constant with which the complex falls apart. Low readings indicate slow dissociation, high ones fast dissociation. In general, kon refers to the second-order rate constant of association. Read a low kon as slow association. With B3, in assay [3], the Kd was 0.746 nM, the koff amounted to 2.76e-05 s⁻¹ and the kon was 37000 M⁻¹ s⁻¹.

B4: α1-α2 variant 17 (ligand)
chain: EPHSLRYNLTVLSWDGSVQSGFLTEVHLDGQPFLRCDRQKCRAKPQGQWAEDVLGNKTWDRETRDLTLWGKDLRMTLAHIKDQKEGLHSLQEIRVCEIHEDNSTRSSQHFYYDGELFLSQNLETLEWTMPQSSRAQTLAMNVRNFLKEDAMETDTHYHAMRADCLQELRRYLKSGVVLRRTVPPMVQVTRSEASGGSGDRVTITCRASQDVSTAVAWYQQKPGKAPKLLIYSASFLYSGVPSRFSGSGSGTDFTLTISSLQPEDFATYYCQQSYTTPPTFGQGTKVEIKGGSSRSSSSGGGGSGGGGEVQLVESGGGLVQPGGSLRLSCAASGFTFTSTGISWVRQAPGKGLEWVGRIYPTNGSTNYADSVKGRFTISADTSKNTAYLQMNSLRAEDTAVYYCARTYGIYDLYVDYTEYVMDYWGQGTLVTVSSGGSSRSSSSGGGGSGGGGDIQMTQSPSSLSASGGSGQITVTCRASGFYPWNITLSWRQDGVSLSHDTQQWGDVLPDGQGTYQTWVATRISQGEEQRFTCYMEHSGQHSTHPVPSGKGSHHHHHH
On to B4, for which, in assay [4], the “IC50 (read off the curve)” value was approximately 1 nM. Further, the “NK cell-mediated lysis of FGFR3-expressing P815 target cells (calcein release, NKL cells)” value in assay [2] is ~15 fold more killing than WT at 0.78 nM.

B5: MICwed-Fv (designed binder)
chain: EPHSLRYNLTVLSWDGSVQSGFLTEVHLDGQPFLRCDRQKCRAKPQGQWAEDVLGNKTWDRETRDLTGWGKDLRMTLAHIKDQKEGLHSLQEIRVCEIHEDNSTRSSQHFYYDGELFLSQNLETKEWTMPQSSRAQTLAMNVRNFLKEDAMETDTHYHAMHADCLQELRRYLKSGVVLRRTVPPMVQVTRSEASGGSGDRVTITCRASQDVSTAVAWYQQKPGKAPKLLIYSASFLYSGVPSRFSGSGSGTDFTLTISSLQPEDFATYYCQQSYTTPPTFGQGTKVEIKGGSSRSSSSGGGGSGGGGEVQLVESGGGLVQPGGSLRLSCAASGFTFTSTGISWVRQAPGKGLEWVGRIYPTNGSTNYADSVKGRFTISADTSKNTAYLQMNSLRAEDTAVYYCARTYGIYDLYVDYTEYVMDYWGQGTLVTVSSGGSSRSSSSGGGGSGGGGDIQMTQSPSSLSASGGSGQITVTCRASGFYPWNITLSWRQDGVSLSHDTQQWGDVLPDGQGTYQTWVATRISQGEEQRFTCYMEHSGQHSTHPVPSGKGSHHHHHH
notes: His-tagged α1-α2-α3-Fv fusion; also called MICwed-Fv run A; MICwed-Fv run B
As to B5, in assay [5], binding was put at a Kd of 15.5 nM, the koff was 0.00312 s⁻¹ and the kon was found to be 201000 M⁻¹ s⁻¹.

B6: ULBP1-α3-iFv.2 (designed binder)
chain: EPHCLCYDFIITPKSRPEPQWCEVQGLVDERPFLHYDCVNHKAKAFASLGKKVNVTKTWEEQTETLRDVVDFLKGQLLDIQVENLIPIEPLTLQARMSCEHEAHGHGRGSWQFLFNGQKFLLFDSNNRKWTALHPGAKKMTEKWEKNRDVTMFFQKISLGDCKMWLEEFLMYWEQMLDPTKPPMVQVTRSEASGGSGDRVTITCRASQDVSTAVAWYQQKPGKAPKLLIYSASFLYSGVPSRFSGSGSGTDFTLTISSLQPEDFATYYCQQSYTTPPTFGQGTKVEIKGGSSRSSSSGGGGSGGGGEVQLVESGGGLVQPGGSLRLSCAASGFTFTSTGISWVRQAPGKGLEWVGRIYPTNGSTNYADSVKGRFTISADTSKNTAYLQMNSLRAEDTAVYYCARTYGIYDLYVDYTEYVMDYWGQGTLVTVSSGGSSRSSSSGGGGSGGGGDIQMTQSPSSLSASGGSGQITVTCRASGFYPWNITLSWRQDGVSLSHDTQQWGDVLPDGQGTYQTWVATRISQGEEQRFTCYMEHSGQHSTHPVPSGKGSHHHHHH
notes: His-tagged, monomeric, insect cells; also called NKG2DL-α3-iFv.2 (ULBP1)
For B6, the binding result in assay [1] is “binds”.

B7: ULBP6-α3-iFv.2 (designed binder)
chain: EPHSLCYDITVIPKFRPGPRWCAVQGQVDEKTFLHYDCGNKTVTPVSPLGKKLNVTTAWKAQNPVLREVVDILTEQLLDIQLENYTPKEPLTLQARMSCEQKAEGHSSGSWQFSIDGQTFLLFDSEKRMWTTVHPGARKMKEKWENDKDVAMSFHYISMGDCIGWLEDFLMGMDSTLEPSAGAPPMVQVTRSEASGGSGDRVTITCRASQDVSTAVAWYQQKPGKAPKLLIYSASFLYSGVPSRFSGSGSGTDFTLTISSLQPEDFATYYCQQSYTTPPTFGQGTKVEIKGGSSRSSSSGGGGSGGGGEVQLVESGGGLVQPGGSLRLSCAASGFTFTSTGISWVRQAPGKGLEWVGRIYPTNGSTNYADSVKGRFTISADTSKNTAYLQMNSLRAEDTAVYYCARTYGIYDLYVDYTEYVMDYWGQGTLVTVSSGGSSRSSSSGGGGSGGGGDIQMTQSPSSLSASGGSGQITVTCRASGFYPWNITLSWRQDGVSLSHDTQQWGDVLPDGQGTYQTWVATRISQGEEQRFTCYMEHSGQHSTHPVPSGKGSHHHHHH
notes: His-tagged, monomeric, insect cells; also called NKG2DL-α3-iFv.2 (ULBP6)
Turning to B7, the binding result in assay [1] is reported as “binds”.

B8: ULBP3-α3-iFv.2 (designed binder)
chain: EPHSLWYNFTIIHLPRHGQQWCEVQSQVDQKNFLSYDCGSDKVLSMGHLEEQLYATDAWGKQLEMLREVGQRLRLELADTELEDFTPSGPLTLQVRMSCECEADGYIRGSWQFSFDGRKFLLFDSNNRKWTVVHAGARRMKEKWEKDSGLTTFFKMVSMRDCKSWLRDFLMHRKKRLEPTAPPMVQVTRSEASGGSGDRVTITCRASQDVSTAVAWYQQKPGKAPKLLIYSASFLYSGVPSRFSGSGSGTDFTLTISSLQPEDFATYYCQQSYTTPPTFGQGTKVEIKGGSSRSSSSGGGGSGGGGEVQLVESGGGLVQPGGSLRLSCAASGFTFTSTGISWVRQAPGKGLEWVGRIYPTNGSTNYADSVKGRFTISADTSKNTAYLQMNSLRAEDTAVYYCARTYGIYDLYVDYTEYVMDYWGQGTLVTVSSGGSSRSSSSGGGGSGGGGDIQMTQSPSSLSASGGSGQITVTCRASGFYPWNITLSWRQDGVSLSHDTQQWGDVLPDGQGTYQTWVATRISQGEEQRFTCYMEHSGQHSTHPVPSGKGSHHHHHH
notes: His-tagged, monomeric, insect cells; also called NKG2DL-α3-iFv.2 (ULBP3)
With B8, the binding result in assay [1] is given as “binds”.
